Results from patent US20220041697A1 (NEW YORK UNIVERSITY, published 2022).

What was measured:
Experiment in all cases: binding of antibody dilutions to peptides (FIG. 1)
[1] = target: T1, Peptide Tau 386-408[phospho-serine396,404] (phosphoserine at positions 11 and 19 of SEQ ID NO: 1 (Ser396 and Ser404 of SEQ ID NO: 25))
T1 construct: For immunisation it was conjugated to KLH via a cysteine residue; also called P-Ser396, P-Ser404; diphosphorylated peptide

[2] = target: T2, Tau 386-408 peptide phosphorylated only on serine 404 (phosphoserine at position 19 of SEQ ID NO: 1 (Ser404 of SEQ ID NO: 25); serine 11 not phosphorylated)
T2 construct: also called P-Ser404; P-Ser404 peptide

[3] = target: T3, non-phosphorylated Tau peptide (Tau386-408) (none (serines 11 and 19 of SEQ ID NO: 1 not phosphorylated))
T3 construct: also called No-P; non-phosphorylated peptide

Measured: binding result

T2 sequence (peptide, as listed by the source): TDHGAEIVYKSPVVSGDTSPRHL

B1: Tau mAb 8B2D1 (antibody, V domains shown)
VH: EVQLQQSGPELVKPGASVKMSCKASGYTFTSYVIHWVKQKPGQGLEWIGYIYPYNDGTIYNEKFKGKATLTSDTSSSTVYMELISLTAEDSAVYWCVRERDNYGVYWGQGTTLTVSS
VL: DVLLTQTPLSLPVSLGDQASISCRSSQSIVHSNGNTYLEWYLQKPGQSPELLIYKVSNRFYGVPDRFSGSGSGTDFTLKISRVEAEDLGVYYCFQDSHIPYTFGGGTRLEIK
notes: Mouse (BALB/c) hybridoma monoclonal antibody; also called monoclonal antibody 8B2D1; anti-Tau 8B2D1 mAb
binds: all assays above
